From the DeepSol protein solubility set

experiment: soluble on expression in E. coli; label from the status in PepcDB or PDB records

| Sequence | soluble on expression in E. coli |
| --- | --- |
| MGSDKIHHHHHHMKPIDQITSWMQEALRPYFGLEPLSAEWDILTVRDGYFICFDGDTIRKRITATELNYQEEDVIIQTSEREVVLPRTARGKEKKLTYTSVSSVMADGIVFSAGIRTLNSGRYGYINVSNYRNSIRLPLPECRDLASKGEIVEWLQSYRERVPADYAHKLERLMHMKNRQHKTIPGDVFRVEIDLHTDGYVLVIGNLRQMQKDELFAEHSIWNDVMTMPLFVRPYLFRTTVRNPSLSEIVASPLSDKCWIVMDNAFLRGNYEYVGSKILAEEDILFPVGYGSSISAQKSDYRLSWGPNSISKASQDTGLKAGRSYMNNGAYSSVSADCFVDRGFPDWDKTLLNPEHLEAWEQVLAEFGFPPDTTYDAFAQRTDGMTRAAYLTYVAENKAYQRKGRAKKKGS | not soluble |
| MTTDSLSQIDTDQDEYGEEIEMASNSLGNLPDVVLQHLAPFLQWSTCRALSEVNLRFRSHFKQHLKEGQALSIKGQVSVGVGDRVNDCQNVSFLSEFYTIRVEMDDNMVVDWTLKLQSGVRTVVHRHYDGNTQTTTTKSVHLSSRDYLEKVLKWILARYQFKKIHLGVQGLAPLFSSYKGEIENVGISDEIEYLKLAEKFRPKHLTLFKPAQNTYNKGFFDLKKFPQLEELRMYGVPLDLDQLIESNISEVAADTIDKDIKLKHVRKIINNWKNGIINYKSIMISPSCSQFGIYCPHNQWSELTDHLVEANALYDNVVNIKEKIGSARYSPRSFEFEVWEADRY | not soluble |
| MTIYTCTLNLAIDLFIETEELVPFVVNRTKEDDIQANGKGVNVSLILKMLGIDNTALGVKAGFTGNYVEDYLKEKEITTDFIEVAGTTRINVFTKVTQDQKEYKLVNKGPKLSEEHVQRFLKKISELRKGDYLCVSGSLPQGVSPSILIEISRICFEKQVFLILDSSYEEILDCLPYQPFLLKPNEEELQEWFHTEVQTKDDYIFYGQELLKRGAKNILLSLGSEGALFMNNEKVLSGNSPTGMVVNTACSGDAMLGTFLAGWHQGLSLEKNLKRSIAAGSSTAFRKGLTDFSDVQELEQQIKIQEEE | not soluble |
| MAPSSLSQSFDHAAQTPEIFEKVPSRTVGRKATITKEELFQAALNLIGPEKSISSLSLREVAREAGIAPNSFYRHFRDIDELAIDLINRAGLVLRHIIRESRLQASKQNSIIRSSVEVFIQQLDADEGNLSLLLREAYTGSKSYKEAVERQLNFFQQELQEDLIRLERLNHSRLSHPDLVARAITQLVFTMGAKVLDLPINQRTAVAEQTMIMIRMILEGARHLDESKIR | soluble |
| MSLAVFAARKWKYNEDKMMTIVRIDAEARWSDVVIHNNTLYYTGVPENLDADAFEQTANTLAQIDAVLEKQGSNKSSILDATIFLADKNDFAAMNKAWDAWVVAGHAPVRCTVQAGLMNPKYKVEIKIVAAVEGHHHHHH | soluble |
| MSLELLSNRLEFLREAERLKDVLRSAHTSSGRPESTAEHSWRLCLMALAFEDQLAGLDLGKVLRMCVVHDLGEAIHGDIPAVEQAAHPDKGEQERADLLQLTRHLDAPLRDRLLALWDEYERGESAEALAVKALDKLETLLQHTQGDNPADFDYAFNLDYGRRYTDRAPLFKTLRELLDARTRQRLAVRRDA | not soluble |
| MSLEGINPAVIMKAIMQSESVEQLSQEREKAEKLLKMYIAQDVAIHFISNIFTELNDALIVKAIEFSVADMKREGIDLPDIEFCWLSLGSEGRKEQLLRTDLDNAILFRDPENEASRETVQRVFLELGKRVTAILVACGFKPCPAEIMASNPEWCQPLSGWMNYFRKWIGTPEPKALMNSTIFFDFRPVYGSTALALEMKREINTEIARGRGFLQFFAKNALQNPPPLGFFRNFLVEKSREHAHEFDIKARALMPLSDAARVLACEFGVTDFLGTVERFRRIGQLLPSFQELAEEAAQGYEFLMRLRTEHGLAEKSSGRYIDPKHLNKMQRQKLRDLFTTIGKVQSMLNLRYQLDYIRAEGHHHHHH | soluble |
| MGHHHHHHHHHHSSGHIEGRHMKLEFMNLLSENKKENYYYCGENKVALVTGAGRGIGREIAKMLAKSVSHVICISRTQKSCDSVVDEIKSFGYESSGYAGDVSKKEEISEVINKILTEHKNVDILVNNAGITRDNLFLRMKNDEWEDVLRTNLNSLFYITQPISKRMINNRYGRIINISSIVGLTGNVGQANYSSSKAGVIGFTKSLAKELASRNITVNAIAPGFISSDMTDKISEQIKKNIISNIPAGRMGTPEEVANLACFLSSDKSGYINGRVFVIDGGLSP | soluble |
| QGDIGIDNLRNFYTKKDFVDLKDVKDNDTPIANQLQFSNESYDLISESKDFNKFSNFKGKKLDVFGISYNGQSNTKYIYGGVTATNEYLDKSRNIPINIWINGNHKTISTNKVSTNKKFVTAQEIDVKLRKYLQEEYNIYGHNGTKKGEEYGHKSKFYSGFNIGKVTFHLNNNDTFSYDLFYTGDDGLPKSFLKIYEDNKTVESEKFHLDVDISYKA | soluble |
| MGSDKIHHHHHHMLANGDVPILQLQHIIKRFGNQVAVNDVSLNIHRGEIVALLGENGAGKSTLIKILAGLYSRDEGEIYFHQQKIQSAQSLTNKNKQPIAFIHQDLGLVEWMTIAENMAFVMGFPRRFGLIDWKKINQQAQEALDFVGIHLSAQTRVFDLSRTEKALLTIARAIAVNAEILVLDEPTASLPASDVEHLFKVLNRLRKQGVGMIYVTHRLDEVIRLSDRILVMRDGYSVAEGSTKDYDVKALVKAIVGEETREKQREPLPKNTPEVVRLNEVVVGDTGPVSFSLHQGEMIALAGLRGAGQEEIGRLLFGLRKLESGDISLNECAYHAESPCEAIYKGVALVAGDRIREGLVMSMTTMENLFINPILSGHFPLKNYASKKERSECWYQFQLFDIRPKNLFIEVSSLSGGNQQKIVLARWMQLNTPVLILEDPTAGVDVGARAEIYDLLNQALKKGVAIIVISNDFEEIAHLCNRALVFNRGDIVGELFNEQVTFANLLALASDASATIN | not soluble |
| APIKVGINGFGRIGRMVFQAICDQGLIGTEIDVVAVVDMSTNAEYFAYQMKHDTVHGRPKYTVEAVKSSPSVETADVLVVNGHRIKCVKAQRNPADLPWGKLGVDYVIESTGLFTDKLKAEGHIKGGAKKVVISAPASGGAKTIVMGVNQHEYSPASHHVVSNASCTTNCLAPIVHVLTKENFGIETGLMTTIHSYTATQKTVDGVSLKDWRGGRAAAVNIIPSTTGAAKAVGMVIPSTKGKLTGMSFRVPTPDVSVVDLTFRATRDTSIQEIDKAIKKAAQTYMKGILGFTDEELVSADFINDNRSSVYDSKATLQNNLPGEKRFFKVVSWYDNEWAYSHRVVDLVRYMAAKDAASSKM | soluble |
| PNFSEGSSSTESTVRVKHKIEKTTQKLSETVRPRDMFIHDDGAHYKVDDNALYEEIWSDLPHWDVKGIKDISDQYDKAGFKSWFYGIGGSEAKLDLQFSDTIPIDIFQTLFKWSNQSFEYSSFDHILIPFNETKANKKIYLVSYSKQLILEVTVESANYRNIMNDLKNRQSNMPAFSLFSIGSKKEFLLPNKPLTMDKKEFVTESIKTNTFKQALFSDPSIVREDSNYNNRNVLTDGISRLDVNLSQRQVQFQQRNLVQSTSYQTGELIKKSQKYLEDTGSWTDHYQFFNINDSQQLSFYIFMDQIPVINSTAKPFGATSAITVQWANDDILSYKRPNYSLGTNPIKTSETELMGGSEVKMLLSKQTAYDTDKIDQIFLAYQLVSTSTNDDPLVELEPVWAMKVNGKIVPITKDLLRKEGANSGVE | soluble |
| MAEPQPASSGLTDETAFSCCSDPDPSTKDFLLQQTMLRIKDPKKSLDFYTRVLGLTLLQKLDFPAMKFSLYFLAYEDKNDIPKDKSEKTAWTFSRKATLELTHNWGTEDDETQSYHNGNSDPRGFGHIGIAVPDVYSACKRFEELGVKFVKKPDDGKMKGLAFIQDPDGYWIEILNPNKIATII | soluble |
| MKLALVNRQVILPESGTESFQCHASTLVRLPCGTLVAAWFAGLREGSEDTAIWLSRYEHNIWTTPQRVAAREGEAHWNPVLFYPSDKLWLFYKVGSDVHVWKTWFITSSDRGFTWSTPAPLVNDDILPRGPVKNKLLLASNGAWIAPGSIESPERWRAFVDRSSDEGKHWSISFVPLEPDNAISGTNVALWDGIKKGRLWECCLENLLRWDGVIQPTLWESSPGHIHMLLRSTRGAIFRSDSIDYGATWSVARATSLPNNNSGIDLVSMQDGTLILALNPVNGNWGKRYPLSLIASQDNGESWLPLLDLESDHGEYSYPAIISEGGIVHITYTWNRKNIVYCRLQTVLEHHHHHH | not soluble |
| MAHHHHHHMCNGKFAFLFSDFGNHVIEESYYKVNEGQRKGETGANKAAMQIQYCKLSHFLKVPFENFDKKTNKIIYPMFALILFEQNKQLNKNDKSIDEQEFHTFCDQFSLSKWKESLVEISKTYRVGFSPTCSIMGGVTSQEIRKFVSKQHESIPNFCVFDMNQNVVCTSMIS | not soluble |
